T1: SIGLEC-5 (limits assumed)
T1 construct: also called OB-BP-2
T1 receptor: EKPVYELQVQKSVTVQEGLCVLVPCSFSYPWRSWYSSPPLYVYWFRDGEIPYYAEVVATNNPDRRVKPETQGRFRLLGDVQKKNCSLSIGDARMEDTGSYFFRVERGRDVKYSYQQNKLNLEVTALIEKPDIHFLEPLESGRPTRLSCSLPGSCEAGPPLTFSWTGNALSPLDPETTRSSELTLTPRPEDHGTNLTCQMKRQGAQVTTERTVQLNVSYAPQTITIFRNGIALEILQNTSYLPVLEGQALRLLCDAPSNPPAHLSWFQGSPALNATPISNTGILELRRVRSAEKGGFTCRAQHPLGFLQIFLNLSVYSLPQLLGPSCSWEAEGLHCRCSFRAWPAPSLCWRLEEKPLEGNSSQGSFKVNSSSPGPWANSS

T2: mouse CD117 (mouse, UniProt P05532)
T2 construct: antigen of the Carterra SPR kinetics; also called murine CD117
T2 sequence (receptor, looked up): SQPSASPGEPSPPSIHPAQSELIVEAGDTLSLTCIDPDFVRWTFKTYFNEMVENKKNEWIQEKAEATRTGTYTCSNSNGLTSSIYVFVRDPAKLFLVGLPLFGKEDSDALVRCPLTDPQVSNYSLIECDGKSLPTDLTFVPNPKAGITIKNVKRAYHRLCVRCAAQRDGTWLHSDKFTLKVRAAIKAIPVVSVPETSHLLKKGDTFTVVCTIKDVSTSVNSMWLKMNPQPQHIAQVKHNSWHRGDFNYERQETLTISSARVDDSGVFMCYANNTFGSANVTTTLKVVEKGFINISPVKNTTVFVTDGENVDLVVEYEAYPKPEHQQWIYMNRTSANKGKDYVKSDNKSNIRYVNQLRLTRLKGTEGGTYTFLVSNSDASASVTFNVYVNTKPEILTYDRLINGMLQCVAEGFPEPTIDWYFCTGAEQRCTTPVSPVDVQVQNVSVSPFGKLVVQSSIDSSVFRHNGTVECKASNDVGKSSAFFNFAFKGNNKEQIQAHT


Experiments:
[1] = target: T3, Sialic acid-binding immunoglobulin-like lectin 8 (SIGLEC-8), antigen of the Carterra SPR studies (UniProt Q9NYZ4 17-363, limits assumed); assay: Carterra SPR kinetics, sensorgram panel
Procedure, shortened: (§1)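 Binding kinetics of antibodies to SIGLEC-8 were measured by surface plasmon resonance on a Carterra instrument. The antibodies came from synthetic antibody libraries panned over four rounds with a bead-based strategy and screened by clonal ELISA. Selected clones were expressed and purified before testing. The read-outs are rate constants, dissociation constants or results from these kinetic runs.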

[2] = target: T3, Sialic acid-binding immunoglobulin-like …; assay: Carterra SPR
Procedure, shortened: as §1

[3] = target: T4, SIGLEC-8 transiently expressed on cells (UniProt Q9NYZ4 17-499, limits assumed); assay: cell binding titration, transient SIGLEC-8 line
T4 construct: whole, on cells; Two cassettes are described (P2A mVenus and direct mVenus fusion); also called the transient line; pTT5-SIGLEC-8 P2A mVenus

[4] = target: T3, Sialic acid-binding immunoglobulin-like …; assay: Carterra SPR kinetics, summary table
Procedure, shortened: as §1

[5] = target: T4, SIGLEC-8 transiently expressed on cells; assay: flow cytometry titration on cells transiently expressing SIGLEC-8 and on parental Expi293
SIGLEC-6 = target: T5, SIGLEC-6; assay: SPR cross-reactivity table
T5 construct: also called OB-BP-1
Procedure, shortened: (§2)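 Purified antibodies against SIGLEC-8, first selected from synthetic libraries by four rounds of bead-based panning, were tested for cross-reactivity with related SIGLEC proteins by surface plasmon resonance on a Carterra instrument. Each protein tested has a dissociation constant or a binding result listed.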

SIGLEC-2 = target: T6, SIGLEC-2; assay: SPR cross-reactivity table
T6 construct: also called CD22
Procedure, shortened: as §2

SIGLEC-3 = target: T7, SIGLEC-3; assay: SPR cross-reactivity table
T7 construct: also called CD33
Procedure, shortened: as §2

SIGLEC-7 = target: T8, SIGLEC-7; assay: SPR cross-reactivity table
T8 construct: also called p75/AIRM1
Procedure, shortened: as §2

SIGLEC-5 = target: T1, SIGLEC-5; assay: SPR cross-reactivity table
Procedure, shortened: as §2

mouse CD117 = target: T2, mouse CD117; assay: Carterra SPR, mouse CD117
Description: (§3) To further evaluate the antibodies discovered during the screens, 21 clones were selected for detailed characterization and were analyzed for target binding kinetics by a Carterra SPR instrument. The binding kinetics of the anti-CD117 antibodies for human CD117, cynomolgus monkey CD117, and murine CD117 are shown in FIG. 29A-29B.

[6] = target: T9, CD117 transiently expressed on Expi293 cells (UniProt P10721 26-976, limits assumed); assay: FACS, MFI expressing / parental cells
T9 construct: whole, on cells; Two cassettes are described (P2A mVenus and direct mVenus fusion); also called CD117 transient cells; the transient cell line
Description: (§4) The transient expression of CD117 was validated with a control antibody, Expi293 (FIGS. 17A-17B). Expi293, […], was transiently transfected with CD117 48-hours post-transfection. The secondary antibody used was APC Goat anti-human IgG (diluted 1:400). 100,000 cells per well were blocked with 1×PBS+0.5% BSA for 1 hour, stained with 100 μL of the primary antibody for 1 hour, and stained with the secondary antibody for one hour, all with 3× washes in between each staining.

[7] = target: CD117-GFP transiently overexpressed in HEK293T cells (UniProt P10721 26-976); assay: cell-based or functional assay
[8] = target: T9, CD117 transiently expressed on Expi293 …; assay: FACS cell binding, Expi293 transiently expressing CD117
cyno CD117 = target: T10, cyno CD117 (Macaca fascicularis, UniProt A0A7N9CP24); assay: Carterra SPR, cyno CD117
T10 construct: antigen of the Carterra SPR kinetics; also called cynomolgus monkey CD117
Description: as §3

[9] = target: T11, Cluster of differentiation 117 (CD117), antigen of epitope binning and ELISA (UniProt P10721 26-520, limits assumed); assay: Carterra SPR, human CD117
T11 construct: also called tyrosine-protein kinase KIT; mast/stem cell growth factor receptor (SCFR)
Description: as §3

[10] = target: T9, CD117 transiently expressed on Expi293 …; assay: flow cytometry titration on CD117 transient cells and on parental Expi293
Description: as §4

[11] = target: T3, Sialic acid-binding immunoglobulin-like …; assay: Carterra SPR kinetics, sensorgram panel; remark: listed apart in the source
Procedure, shortened: as §1

T11 sequence (P10721 26-520 limits assumed): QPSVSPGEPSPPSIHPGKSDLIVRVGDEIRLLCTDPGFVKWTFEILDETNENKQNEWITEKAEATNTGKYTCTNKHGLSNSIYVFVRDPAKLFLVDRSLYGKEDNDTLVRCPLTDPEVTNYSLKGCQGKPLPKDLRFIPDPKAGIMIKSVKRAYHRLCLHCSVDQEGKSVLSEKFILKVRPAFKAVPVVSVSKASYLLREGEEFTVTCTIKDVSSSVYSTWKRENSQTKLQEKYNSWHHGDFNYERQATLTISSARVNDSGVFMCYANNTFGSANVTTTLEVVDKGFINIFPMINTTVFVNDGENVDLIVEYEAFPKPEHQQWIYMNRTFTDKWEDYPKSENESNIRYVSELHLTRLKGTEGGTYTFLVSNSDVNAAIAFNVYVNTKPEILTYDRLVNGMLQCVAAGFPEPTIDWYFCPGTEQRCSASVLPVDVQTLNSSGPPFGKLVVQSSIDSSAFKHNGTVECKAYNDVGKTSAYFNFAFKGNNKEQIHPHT
T9 sequence (P10721 26-976 limits assumed): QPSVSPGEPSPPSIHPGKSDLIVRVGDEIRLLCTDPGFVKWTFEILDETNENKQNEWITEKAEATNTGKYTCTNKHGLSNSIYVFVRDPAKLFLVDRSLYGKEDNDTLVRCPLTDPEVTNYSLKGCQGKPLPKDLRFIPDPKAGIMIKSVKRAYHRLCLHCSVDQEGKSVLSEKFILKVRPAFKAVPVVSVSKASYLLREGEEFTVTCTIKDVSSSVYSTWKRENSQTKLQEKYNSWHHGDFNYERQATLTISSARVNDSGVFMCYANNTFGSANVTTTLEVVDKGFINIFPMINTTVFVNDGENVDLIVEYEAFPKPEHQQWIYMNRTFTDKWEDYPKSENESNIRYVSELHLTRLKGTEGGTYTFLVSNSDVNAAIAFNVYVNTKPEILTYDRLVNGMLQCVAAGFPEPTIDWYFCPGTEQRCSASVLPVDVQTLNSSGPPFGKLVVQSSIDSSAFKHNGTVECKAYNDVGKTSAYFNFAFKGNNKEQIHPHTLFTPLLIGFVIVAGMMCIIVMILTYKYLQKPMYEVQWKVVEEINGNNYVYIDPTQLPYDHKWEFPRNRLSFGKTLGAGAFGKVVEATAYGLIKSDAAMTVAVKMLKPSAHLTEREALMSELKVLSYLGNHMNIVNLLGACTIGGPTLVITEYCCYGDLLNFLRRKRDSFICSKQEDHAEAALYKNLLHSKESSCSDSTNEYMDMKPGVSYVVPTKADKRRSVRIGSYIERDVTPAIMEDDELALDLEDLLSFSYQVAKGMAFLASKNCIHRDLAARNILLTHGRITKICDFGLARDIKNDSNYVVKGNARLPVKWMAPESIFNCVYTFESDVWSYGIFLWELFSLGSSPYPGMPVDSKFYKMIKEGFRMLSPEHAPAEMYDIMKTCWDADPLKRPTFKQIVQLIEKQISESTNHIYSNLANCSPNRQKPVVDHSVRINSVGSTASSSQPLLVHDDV
T4 sequence (Q9NYZ4 17-499 limits assumed): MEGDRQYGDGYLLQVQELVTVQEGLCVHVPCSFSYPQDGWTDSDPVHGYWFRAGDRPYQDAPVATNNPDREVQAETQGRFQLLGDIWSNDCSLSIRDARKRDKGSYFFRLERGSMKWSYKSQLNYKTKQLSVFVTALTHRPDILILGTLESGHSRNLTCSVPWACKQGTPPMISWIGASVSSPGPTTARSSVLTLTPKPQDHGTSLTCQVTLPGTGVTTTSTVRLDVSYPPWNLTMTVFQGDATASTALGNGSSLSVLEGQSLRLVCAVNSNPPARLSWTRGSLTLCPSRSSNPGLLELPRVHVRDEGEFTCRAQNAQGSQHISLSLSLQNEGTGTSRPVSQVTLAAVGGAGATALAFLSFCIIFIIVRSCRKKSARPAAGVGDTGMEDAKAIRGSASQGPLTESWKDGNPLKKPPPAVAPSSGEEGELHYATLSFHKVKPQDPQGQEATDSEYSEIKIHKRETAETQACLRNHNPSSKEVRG
T10 sequence (A0A7N9CP24 entry or part of it): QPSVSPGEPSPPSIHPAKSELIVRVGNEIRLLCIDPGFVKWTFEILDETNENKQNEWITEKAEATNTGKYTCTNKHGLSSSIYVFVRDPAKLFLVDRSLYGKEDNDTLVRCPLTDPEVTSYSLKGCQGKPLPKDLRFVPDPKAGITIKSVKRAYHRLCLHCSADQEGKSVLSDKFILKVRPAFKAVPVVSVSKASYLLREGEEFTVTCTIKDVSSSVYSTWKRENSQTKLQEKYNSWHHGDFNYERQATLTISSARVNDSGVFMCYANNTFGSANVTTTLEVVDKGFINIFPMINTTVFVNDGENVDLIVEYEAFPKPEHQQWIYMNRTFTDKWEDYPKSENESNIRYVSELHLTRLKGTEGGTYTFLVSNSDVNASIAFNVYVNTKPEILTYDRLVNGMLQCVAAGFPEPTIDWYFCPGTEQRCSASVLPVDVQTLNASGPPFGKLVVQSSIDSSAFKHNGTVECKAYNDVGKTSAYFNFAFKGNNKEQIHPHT
T3 sequence (Q9NYZ4 17-363 limits assumed): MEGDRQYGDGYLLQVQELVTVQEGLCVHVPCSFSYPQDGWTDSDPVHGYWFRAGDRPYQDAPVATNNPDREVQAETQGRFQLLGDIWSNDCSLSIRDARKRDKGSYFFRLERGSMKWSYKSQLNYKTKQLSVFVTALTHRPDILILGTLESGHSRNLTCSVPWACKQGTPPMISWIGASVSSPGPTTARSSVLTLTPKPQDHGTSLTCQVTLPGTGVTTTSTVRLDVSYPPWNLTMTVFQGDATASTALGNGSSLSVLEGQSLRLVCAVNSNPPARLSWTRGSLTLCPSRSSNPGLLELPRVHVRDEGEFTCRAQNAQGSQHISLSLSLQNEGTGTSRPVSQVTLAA
T6 sequence (chain, as listed by the source limits assumed): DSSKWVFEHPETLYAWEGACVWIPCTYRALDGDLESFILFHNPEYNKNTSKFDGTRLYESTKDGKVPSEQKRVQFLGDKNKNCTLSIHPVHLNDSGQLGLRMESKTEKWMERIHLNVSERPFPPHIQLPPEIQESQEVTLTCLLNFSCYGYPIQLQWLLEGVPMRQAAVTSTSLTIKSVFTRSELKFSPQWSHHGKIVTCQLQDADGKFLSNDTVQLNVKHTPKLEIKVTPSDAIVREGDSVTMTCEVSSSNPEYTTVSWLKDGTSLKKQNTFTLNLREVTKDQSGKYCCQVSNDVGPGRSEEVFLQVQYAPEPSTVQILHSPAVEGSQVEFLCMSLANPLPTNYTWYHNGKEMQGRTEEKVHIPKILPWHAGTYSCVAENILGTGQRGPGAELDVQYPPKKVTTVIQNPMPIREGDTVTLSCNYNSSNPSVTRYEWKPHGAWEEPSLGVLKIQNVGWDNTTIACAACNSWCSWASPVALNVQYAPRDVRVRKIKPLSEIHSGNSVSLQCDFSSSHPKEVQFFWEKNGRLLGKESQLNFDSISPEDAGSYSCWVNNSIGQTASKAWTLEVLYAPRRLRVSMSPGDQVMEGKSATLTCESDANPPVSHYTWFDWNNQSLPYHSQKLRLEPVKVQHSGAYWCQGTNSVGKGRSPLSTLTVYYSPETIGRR
T7 sequence (receptor, as listed by the source limits assumed): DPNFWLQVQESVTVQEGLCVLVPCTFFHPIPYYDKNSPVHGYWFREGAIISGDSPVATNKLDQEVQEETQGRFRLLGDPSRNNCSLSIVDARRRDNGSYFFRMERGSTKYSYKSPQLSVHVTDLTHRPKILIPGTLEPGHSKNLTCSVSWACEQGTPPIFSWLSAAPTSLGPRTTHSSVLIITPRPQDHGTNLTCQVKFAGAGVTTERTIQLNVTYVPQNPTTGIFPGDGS
T5 sequence (receptor, as listed by the source limits assumed): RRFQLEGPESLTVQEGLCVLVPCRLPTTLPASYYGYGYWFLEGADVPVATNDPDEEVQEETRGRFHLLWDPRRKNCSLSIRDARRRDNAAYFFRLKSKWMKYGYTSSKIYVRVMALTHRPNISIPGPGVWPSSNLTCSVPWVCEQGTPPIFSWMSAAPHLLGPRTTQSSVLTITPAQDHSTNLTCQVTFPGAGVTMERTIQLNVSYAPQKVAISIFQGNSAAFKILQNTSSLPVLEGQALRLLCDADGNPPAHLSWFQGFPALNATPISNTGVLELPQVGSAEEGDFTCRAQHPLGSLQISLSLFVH
T8 sequence (receptor, as listed by the source limits assumed): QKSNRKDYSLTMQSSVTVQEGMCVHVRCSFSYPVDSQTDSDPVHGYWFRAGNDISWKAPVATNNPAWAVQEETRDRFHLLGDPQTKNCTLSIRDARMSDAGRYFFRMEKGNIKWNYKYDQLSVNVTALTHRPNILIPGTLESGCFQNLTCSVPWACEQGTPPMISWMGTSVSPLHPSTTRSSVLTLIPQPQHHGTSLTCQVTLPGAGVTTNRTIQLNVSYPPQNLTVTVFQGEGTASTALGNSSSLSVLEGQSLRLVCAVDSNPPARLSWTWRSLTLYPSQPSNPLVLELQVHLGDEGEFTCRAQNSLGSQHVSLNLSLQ

Binder | EC50 [3] | binding result (mouse CD117) | MFI Ratio [6] | EC50 [8] | Kd (cyno CD117) | koff (cyno CD117) | kon (cyno CD117) | Kd [9] | koff [9] | kon [9] | other results
SIGLEC-8-40 (antibody, human IgG1, kappa, V domains shown, tested as expressed and purified mAb; also called SIBLEC8-40) VH: EVQLLESGGGLVQPGGSLRLSCAASGFTFSFFDMMWVRQAPGKGLEWVSQISETGRRTYYADSVKGRFTISRDNSKNTLYLQMNSLRAEDTAVYYCATAEDEQGYDYWGQGTLVTVSS VL: DIQMTQSPSSLSASVGDRVTITCRASQSINFWLRWYQQKPGKAPKLLIYGTTSLESGVPSRFSGSGSGTDFTLTISSLQPEDFATYYCQQTATWPFTFGQGTKVEIKR | 0.609 nM |  |  |  |  |  |  |  |  |  | Kd [1]: < 0.023 nM; Kd [2]: 0.0225 nM; koff [4]: 1e-05 s⁻¹; kon [4]: 444000 M⁻¹ s⁻¹
SIGLEC-8-1 (antibody, human IgG1, kappa, V domains shown, tested as expressed and purified mAb) VH: EVQLLESGGGLVQPGGSLRLSCAASGFTFSNFPMSWVRQAPGKGLEWVSSISGTGSSTYYADSVKGRFTISRDNSKNTLYLQMNSLRAEDTAVYYCVREGRYFYYAMDVWGQGTLVTVSS VL: DIQMTQSPSSLSASVGDRVTITCRASQNIAGYLNWYQQKPGKAPKLLIYAASNLHTGVPSRFSGSGSGTDFTLTISSLQPEDFATYYCQQSYSTPLAFGGGTKVEIKR | 1.26 nM |  |  |  |  |  |  |  |  |  | EC50 (read off the curve) [5]: ~5 nM; Kd [2]: 0.292 nM; Kd (SIGLEC-6): 7 nM; Kd (SIGLEC-2): 196 nM; Kd (SIGLEC-3): 135 nM; Kd (SIGLEC-7): 5240 nM; Kd (SIGLEC-5): 5.8 nM; koff [4]: 4.38e-05 s⁻¹; kon [4]: 150000 M⁻¹ s⁻¹
CD117-7 (antibody, human IgG1, kappa, V domains shown, detected with anti-human IgG in FACS) VH: EVQLLESGGGLVQPGGSLRLSCAASGFTFSDYAMGWVRQAPGKGLEWVSGIGGSGGSAYYADSVKGRFTISRDNSKNTLYLQMNSLRAEDTAVYYCARGFDSTDGVDYWGQGTLVTVSS VL: DIQMTQSPSSLSASVGDRVTITCRASQSIGNYLNWYQQKPGKAPKLLIYAASDLQTGVPSRFSGSGSGTDFTLTISSLQPEDFATYYCQQGYSTPYTFGGGTKVEIKR |  | no binding | 21.9 | 4.01 nM | 14.2 nM | 0.0159 s⁻¹ | 1.12e+06 M⁻¹ s⁻¹ | 22 nM | 0.0194 s⁻¹ | 882000 M⁻¹ s⁻¹ | IC50, inhibition of the SCF-stimulated SRF reporter signal (FFLuc/RLuc); same row prints log(IC50) -9.451 and Span -0.1049 [7]: 3.54e-10 M
CD117-2 (antibody, human IgG1, kappa, V domains shown, detected with anti-human IgG in FACS) VH: EVQLLESGVGLVQPGGSLRLSCAASGFSFGSYAMSWVRQAPGKGLEWVSSISGSGGTTYYADSVKGRFTISRDNSKNTLYLQMNSLRAEDTAVYYCARDPDDYGDYYFDYWGQGTLVTVSS VL: DIQMTQSPSSLSASVGDRVTITCRASQSIGEYLNWYQQKPGKAPKLLIYATSSLQRGVPSRFSGSGSGTDFTLTISSLQPEDFATYYCQQSHTTPYTFGGGTKVEIKR |  |  | 30.7 | 0.742 nM | 607 nM | 0.201 s⁻¹ | 331000 M⁻¹ s⁻¹ | 208 nM | 0.136 s⁻¹ | 655000 M⁻¹ s⁻¹ | Kd (mouse CD117): 13.7 nM; koff (mouse CD117): 0.00222 s⁻¹; kon (mouse CD117): 161000 M⁻¹ s⁻¹; IC50, inhibition of the SCF-stimulated SRF reporter signal (FFLuc/RLuc); same row prints log(IC50) -9.344 and Span -0.2266 [7]: 4.53e-10 M; EC50 (read off the curve) [10]: ~1 nM

Continued, in another order:

EC50 [3] | binding result (mouse CD117) | MFI Ratio [6] | EC50 [8] | Kd (cyno CD117) | koff (cyno CD117) | kon (cyno CD117) | Kd [9] | koff [9] | kon [9] | Binder | other results
 | no binding | 26.6 | 23.8 nM | 508 nM | 0.16 s⁻¹ | 315000 M⁻¹ s⁻¹ | 189 nM | 0.1 s⁻¹ | 530000 M⁻¹ s⁻¹ | CD117-1 (antibody, human IgG1, kappa, V domains shown, detected with anti-human IgG in FACS) VH: EVQLLESGGGLVQPGGSLRLSCAASGFTLTSYAMSWVRQAPGKGLEWVSTISGSGGYTYYADSVKGRFTISRDNSKNTLYLQMNSLRAEDTAVYYCARDSGYDRGLDYWGQGTLVTVSS VL: DIQMTQSPSSLSASVGDRVTITCRASQSVRTYLNWYQQKPGKAPKLLIYDASTLQSGVPSRFSGSGSGTDFTLTISSLQPEDFATYYCQQSYSSSITFGGGTKVEIKR | IC50, inhibition of the SCF-stimulated SRF reporter signal (FFLuc/RLuc); same row prints log(IC50) -9.366 and Span -0.2174 [7]: 4.31e-10 M
 | no binding | 12.2 | 0.0718 nM | 2.34 nM | 0.00146 s⁻¹ | 624000 M⁻¹ s⁻¹ | 2.53 nM | 0.00177 s⁻¹ | 698000 M⁻¹ s⁻¹ | CD117-14 (antibody, human IgG1, kappa, V domains shown, detected with anti-human IgG in FACS) VH: EVQLLESGGGLVQPGGSLRLSCAASGFTFSDYAMGWVRQAPGKGLEWVSGIGGSGGSAYYADSVKGRFTISRDNSKNTLYLQMNSLRAEDTAVYYCARGFDSTDGVDYWGQGTLVTVSS VL: DIQMTQSPSSLSASVGDRVTITCQTSQSVSSYLNWYQQKPGKAPKLLIYGASRLESGVPSRFSGSGSGTDFTLTISSLQPEDFATYYCQQSYKTPWTFGGGTKVEIKR | IC50, inhibition of the SCF-stimulated SRF reporter signal (FFLuc/RLuc); same row prints log(IC50) -9.67 and Span -0.1208 [7]: 2.14e-10 M
904 nM |  |  |  |  |  |  |  |  |  | SIGLEC-8-27 (antibody, human IgG1, kappa, V domains shown, tested as expressed and purified mAb) VH: EVQLLESGGGLVQPGGSLRLSCAASGFTFSNHVMSWVRQAPGKGLEWVSAISGSGASTYYADSVKGRFTISRDNSKNTLYLQMNSLRAEDTAVYYCARAPIAVAGTADHWGQGTLVTVSS VL: DIQMTQSPSSLSASVGDRVTITCRASQSIGSDLNWYQQKPGKAPKLLIYGASRLESGVPSRFSGSGSGTDFTLTISSLQPEDFATYYCQQTFTNTPLTFGGGTKVEIKR | binding result [11]: no binding

— patent publication US20260001953A1 (TWIST BIOSCIENCE, published 2026)
